Test results as given in patent US20190359693A1 (Janssen / Centocor, published 2019).
Positions count from the first letter of the chain named. Like-named read-outs stand apart in the source and are kept apart here.

Columns and labels:
[1] = biological target: recombinant HA of H1N1 A/New Caledonia/20/1999 (influenza A virus, UniProt Q289M7 18-565); experiment: biolayer interferometry (Octet), steady-state fit, geometric mean
[2] = biological target: hemagglutinin (HA) of influenza virus H1N1 A/Puerto Rico/8/34-MA (influenza A virus); experiment: cell-based or functional assay
[3] = biological target: hemagglutinin (HA) of influenza virus H5N1 A/Vietnam/1194/04 (influenza A virus); experiment: cell-based or functional assay
[4] = biological target: hemagglutinin (HA) of influenza virus H3N2 A/Wisconsin/67/05 (influenza A virus); experiment: cell-based or functional assay
[5] = biological target: hemagglutinin (HA) of influenza virus H1N1 A/California/07/09 (influenza A virus); experiment: cell-based or functional assay
HA of H3N2 A/HK/1/68-MA [6] = biological target: HA of H3N2 A/HK/1/68-MA (influenza A virus); experiment: cell-based or functional assay
HA of H3N2 A/HK/1/68 [7] = biological target: T1, HA of H3N2 A/HK/1/68 (influenza A virus, UniProt Q91MA7 17-530); experiment: BLI (Octet)
[8] = biological target: HA of H10N7 A/Chick/Germany/N/49 (influenza A virus); experiment: cell-based or functional assay
[9] = biological target: HA of H4 A/WF/HK/MPA892/06 (influenza A virus); experiment: cell-based or functional assay
HA of H7N7 A/PR8 H7N7-NY = HA of H7N7 A/PR8 H7N7-NY (influenza A virus); experiment: cell-based or functional assay
HA of H3N2 A/HK/1/68 [10] = biological target: T1, HA of H3N2 A/HK/1/68; experiment: cell-based or functional assay
HA of B/Lee/40 [11] = biological target: T2, HA of B/Lee/40 (influenza B virus, UniProt P03460 16-552); experiment: cell-based or functional assay
[12] = biological target: HA of B/Malaysia/2506/04 (Victoria) (influenza B virus); experiment: cell-based or functional assay
[13] = biological target: HA of B/Harbin/7/94 (Yamagata) (influenza B virus); experiment: cell-based or functional assay
HA of B/Lee/40 [14] = biological target: T2, HA of B/Lee/40; experiment: cell-based or functional assay; remark: listed apart in the source
[15] = biological target: HA of B/Harbin/7/94 (Yamagata) (influenza B virus); experiment: cell-based or functional assay; remark: listed apart in the source
[16] = biological target: HA of H5N1 A/Vietnam/1194/04 (influenza A virus); experiment: cell-based or functional assay
[17] = biological target: HA of H7N7 A/Netherlands/219/2003 (influenza A virus, UniProt P36346 19-563); experiment: AlphaLISA competition vs CR9114
HA of H3N2 A/HK/1/68-MA [18] = biological target: HA of H3N2 A/HK/1/68-MA (influenza A virus); experiment: cell-based or functional assay; remark: listed apart in the source
[19] = biological target: HA of H1N1 A/Puerto Rico/8/34-MA (influenza A virus); experiment: cell-based or functional assay
[20] = biological target: HA of H3N2 A/Wisconsin/67/2005 (influenza A virus); experiment: cell-based or functional assay

B1: MD1210 (bispecific antibody)
chain: EVQLVESGGGLVQAGGSLKLSCAASGRTYAMGWFRQAPGKEREFVAHINALGTRTYYSDSVKGRFTISRDNAKNTEYLEMNNLKPEDTAVYYCTAQGQWRAAPVAVAAEYEFWGQGTQVTVSSAAAGGGGSGGGGSGGGGSGGGGSGGGGSGGGGSGGGGSEVQLVESGGGLVQPGGSLRLSCAVSISIFDIYAMDWYRQAPGKQRDLVATSFRDGSTNYADSVKGRFTISRDNAKNTLYLQMNSLKPEDTAVYLCHVSLYRDPLGVAGGMGVYWGKGALVTVSS
With B1 the Kd [1] was 0.7 nM, the neutralization titer [2] was 21.9 nM and the neutralization titer [3] was 21.4 nM. It also gave a neutralization titer [4] of 118 nM and a neutralization titer [5] of 2.5 nM.

B2: SD1034 (VHH)
VHH: EVQLVESGGGLVQAGGSLRLSCAASGTIFGIRVNTMGWYRQAPGEQRELVATITRSGGTNYADSVKDRFTISGDFAKDTVYLQMMHLKPEDTAVYYCNGRWALTDYWGQGTQVTVSS
B2 gave a VNA titer (HA of H3N2 A/HK/1/68-MA [6]) greater than 1000 nM.

B3: SD1045 (VHH)
VHH: EVQLVESGGGLVQAGGSLRLSCAASGSSFSINVMGWYRQAPGKQREMVATITYGGSTNYVDSVKGRFTISRDNAKNTVYLQMNSLKPEDTAVYYCNSRLAQINYWGQGTQVTVSS
notes: llama sdAb
In the case of B3, the binding result (HA of H3N2 A/HK/1/68 [7]) is reported as “no binding (tested: HA 20 µg/mL)”, the VNA titer [8] is reported as 985 nM and the VNA titer [9] is reported as 492 nM. For the same binder, the VNA titer (HA of H7N7 A/PR8 H7N7-NY) was greater than 1000 nM and the VNA titer (HA of H3N2 A/HK/1/68 [10]) was greater than 1000 nM.

B4: SD1087 (VHH)
VHH: EVQLVESGGGLVQPGGSLRLSCVISGLSLDTYAVGWFRQAPGKEREGITCISSGHGMTYYADSVKGRFTVSTDNAKNTVYLQMNGLQPEDTARYYCATESRYYCSDNWPAPQRYIYWGQGTQVTVSS
Binder B4 has a VNA titer (HA of B/Lee/40 [11]) of 6.5 nM, a VNA titer [12] of 79.1 nM and a VNA titer [13] of 503 nM. The hemagglutination inhibition titer (HA of B/Lee/40 [14]) was greater than 50 µg/mL, the hemagglutination inhibition titer [15] was greater than 50 µg/mL and the hemagglutination inhibition titer [16] was greater than 50 µg/mL.

B5: MD1211 (bispecific antibody)
chain: EVQLVESGGGLVQPGGSLRLSCAVSISIFDIYAMDWYRQAPGKQRDLVATSFRDGSTNYADSVKGRFTISRDNAKNTLYLQMNSLKPEDTAVYLCHVSLYRDPLGVAGGMGVYWGKGALVTVSSAAAGGGGSGGGGSGGGGSGGGGSGGGGSGGGGSGGGGSEVQLVESGGGLVQAGGSLKLSCAASGRTYAMGWFRQAPGKEREFVAHINALGTRTYYSDSVKGRFTISRDNAKNTEYLEMNNLKPEDTAVYYCTAQGQWRAAPVAVAAEYEFWGQGTQVTVSS
B5 showed a Kd [1] of 1.7 nM, a neutralization titer [2] of 9.9 nM and a neutralization titer [3] of 7.6 nM. For the same binder, the neutralization titer [4] was 19.3 nM and the neutralization titer [5] was 4 nM.

B6: SD1014 (VHH)
VHH: EVQLVESGGGLVQAGGSLTLSCAASGRTYAMAWFRQAPGKEREFVAHINALGTRTYYSDSVKGRFTISRDNAKNTEYLQMNSLNPEDTAVYYCAAGGQWRAAPVADAAQYDFWGQGTQVTVSS
notes: llama sdAb
Binder B6 has a pIC50 [17] of 9.2, a VNA titer (HA of H3N2 A/HK/1/68-MA [18]) greater than 1000 nM and a VNA titer [19] greater than 1000 nM.

B7: SD1017 (VHH)
VHH: B6 VHH with T19R, T55A, K62E, E76G, N84E, Y92V
Binder B7 has a VNA titer (HA of H3N2 A/HK/1/68-MA [18]) greater than 1000 nM, a VNA titer [19] greater than 1000 nM and a VNA titer [20] greater than 1000 nM.
